Assay results taken from PMC3086075.

Target: recombinant class C acid phosphatase from Pasteurella multocida (Pasteurella multocida)
Test: AUC

With “recombinant class C acid phosphatase from Pasteurella multocida (enzyme)” the stoichiometry N was 2.
